# From patent US20220119468A1, “AMYLOID PEPTIDE VARIANTS” (published 2022)
# T1: human Islet Amyloid Polypeptide (human)
# T1 peptide: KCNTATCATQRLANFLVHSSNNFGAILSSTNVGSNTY
# Biological target: T1, human Islet Amyloid Polypeptide
# Test: cell-based or functional assay
row,Binder,cell viability of RIN-m cells (MTT viability assay)
1,KCNTATCVTQRLADFLVRSSSNIGAIYSPTNVGSNTY [chicken IAPP],76 % cell viability
2,KCNTATCVTQRLANFLLRSSNNLGAILSPTNVGSNTY [raccoon IAPP],72 % cell viability
3,KCNTATCATQRLANFLIRSSNNLGAILSPTNVGSNTY [cat IAPP],~62 % cell viability
4,KCNTATCATQRLANFLVRSSNNLGAILSPTNVGSNTY [seal IAPP],~62 % cell viability
